The text below walks through data of article PMC6821365.

Changes are numbered by the printed parent chain.

The target of one data set is T1, yedK WT (Escherichia coli (gene from BL21 …, UniProt P76318 2-222)).
T1 sequence: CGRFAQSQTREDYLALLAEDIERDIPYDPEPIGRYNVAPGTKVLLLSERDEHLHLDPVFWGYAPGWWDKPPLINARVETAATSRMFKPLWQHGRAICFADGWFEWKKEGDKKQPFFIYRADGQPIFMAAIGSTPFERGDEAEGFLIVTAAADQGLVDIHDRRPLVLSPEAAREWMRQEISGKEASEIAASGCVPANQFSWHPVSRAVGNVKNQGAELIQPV
In words: ITC.

In another data set the target is T2, yedK K113A (Escherichia coli (gene from BL21 …, UniProt P76318 2-222, K113A)).
T2 sequence: T1 sequence with K112A
In words: ITC. In general terms: ITC needs no label: the signal is the heat of the interaction.

B1: ssDNA (ssDNA)
DNA: CGGTCGATTC
The term Kd denotes a measure of binding affinity in units of concentration. Low values mean higher affinity, high ones lower affinity. For B1, the dissociation constant Kd with yedK WT is 2200 nM; in the data set with yedK K113A, 2100 nM.
